# Data reported in the RNAGym collection of RNA variant scans (doi:10.7554/elife.80360).
# B1: Hairpin Ribozyme (parent)
# chain: GUCCUCUUUCACGUGCGCGUGAAAGAGAGAAGUGAACCAGAGAAACACACGUUGUGGUAUAUUACCUGGUA
# Variants of: B1
# Test: self-cleavage, relative activity (ratio to wild type); higher = more cleavage; co-transcriptional
row,Variant,self-cleavage
1,GUUCUCUUUCACGUGCGCGUGAAAGAGAGAAGUGAACCAGAGAAAGACACGUUGUGGUAUAUUACCUGGUA,0.179
2,GUUCUCUUUCACGUGCGCGUGAAAGAGAGAAGUGAACCAGAGAAAAACACGUUGUGGUAUAUUACCUGGUA,0.121
3,GUUCUCUUUCACGUGCGCGUGAAAGAGAGAACUGAACCAGAGAAACACACGUUGUGGUAUAUUACCUGGUA,0.133
4,GUUCUCUUUCACGUGCGCUUGAAAGAGAGAAGUGAACCAGAGAAACACACGUUGUGGUAUAUUACCUGGUA,0.502
5,GUUCUCUUUCACGUGCGCGUGAAAGAGAGAUGUGAACCAGAGAAACACACGUUGUGGUAUAUUACCUGGUA,0.102
6,GUUCUCUUUCACGUGCGCGUGAAAGAGAGAAGUGAACCAGAGAAACACACGUUGUGUUAUAUUACCUGGUA,0.204
7,GUUCUCUUUCACGUGCGCGUGAAAGAGAGAAGUGAACCAGAGAAACACACGUUGUGAUAUAUUACCUGGUA,0.0631
8,GUCAUCUUUCACGUGCGCGUGAUAGAGAGAAGUGAACCAGAGAAACACACGUUGUGGUAUAUUACCUGGUA,0.251
9,GUUCUCUUUCACGUGGGCGUGAAAGAGAGAAGUGAACCAGAGAAACACACGUUGUGGUAUAUUACCUGGUA,0.23
10,GUUCUAUUUCACGUGCGCGUGAAAGAGAGAAGUGAACCAGAGAAACACACGUUGUGGUAUAUUACCUGGUA,0.372
11,GUUCUUUUUCACGUGCGCGUGAAAGAGAGAAGUGAACCAGAGAAACACACGUUGUGGUAUAUUACCUGGUA,0.347
12,GUUCUCUUUCACGUGCGCGUGAAAGAGAGAAGUGAACCAGAGAAACACACGUUGUGGGAUAUUACCUGGUA,0.404
13,GUUCUCUAUCACGUGCGCGUGAAAGAGAGAAGUGAACCAGAGAAACACACGUUGUGGUAUAUUACCUGGUA,0.361
14,GUUGUCUUUCACGUGCGCGUGAAAGAGAGAAGUGAACCAGAGAAACACACGUUGUGGUAUAUUACCUGGUA,0.235
15,GUUCUCUUUCACGUGCGCGUGAAAGAGAGAAGUGAACCAGAGAAACACACGUUGUGGUAUAUUACCUUGUA,0.19
16,GUUCUCUUUCACGUGCGCGUGAAAGAGAGAAGUGAACCAGAGAAACACACGUUGUGGUAUAUGACCUGGUA,0.12
17,GUUCUCUUUCACGUGCGCGUGAAAGAGAGAAGUGAACCAGAGAAACACACGUUGUGGUAUAUCACCUGGUA,0.264
18,GUUCACUUUCACGUGCGCGUGAAAGAGAGAAGUGAACCAGAGAAACACACGUUGUGGUAUAUUACCUGGUA,0.429
19,GUUCUCUUUCACGUGCGCGUGAAAGAUAGAAGUGAACCAGAGAAACACACGUUGUGGUAUAUUACCUGGUA,0.15
20,GUUCUCUUUCACGUGCGCGUGAAAGAGAGAAGUGAACCAGAGAAACACACGUUGUGGUAUAAUACCUGGUA,0.158
21,GUUCUCUUUCACGUGCGCGUGAAAGAGAGAAGUGAACCAGAGAAACACACUUUGUGGUAUAUUACCUGGUA,0.538
22,GUUCUCUUUCACGUGCGCGUGAAAGAGAGAAGUGAACCAGAGAAACACACCUUGUGGUAUAUUACCUGGUA,0.402
23,GUUCUCUUUGACGUGCGCGUGAAAGAGAGAAGUGAACCAGAGAAACACACGUUGUGGUAUAUUACCUGGUA,0.457
24,GUUCUCUUUCACGUGCGCGUGAAAGAGAGAAGUGAACCAGAGAAACACACGUUGUGGUAUAUUAUCUGGUA,0.334
25,GUUCUCUUUCACGUGCGCGUGAAAGAGAGAAGUGAACCAGAGAAACACACGUUGUGGUAUAUUAACUGGUA,0.611
26,GUUCUCUUUCACGGGCGCGUGAAAGAGAGAAGUGAACCAGAGAAACACACGUUGUGGUAUAUUACCUGGUA,0.442

row,Variant,self-cleavage
1,GUUCUCUUUCACGUGCGCGUGAAAGAGAGAAGUGAACCAGAGGAACACACGUUGUGGUAUAUUACCUGGUA,0.138
2,GUUCUCUUUCACGUGCGCGUGAAAGAGAGAAGUGAACCAGAGAUACACACGUUGUGGUAUAUUACCUGGUA,0.0496
3,GUUCUCUUUCACGUGCGCGUGAAAGAGCGAAGUGAACCAGAGAAACACACGUUGUGGUAUAUUACCUGGUA,0.452
4,GUUCUCUUUCACGUGCGCGUGAAAGAGAGAAGUAAACCAGAGAAACACACGUUGUGGUAUAUUACCUGGUA,0.747
5,GUUCUCUUUCACGUGCGCGUGAAAGAGAGAAGUGCACCAGAGAAACACACGUUGUGGUAUAUUACCUGGUA,0.802
6,GUUCUCUUUCACGUGCGCGUGAAAGAGAGAAGUGUACCAGAGAAACACACGUUGUGGUAUAUUACCUGGUA,0.339
7,GUUCUCUUUCACGUGCGCGUGAAAGAGAGAAGUGAACCAGAGAAACACACGUUGUGGUAUAUUACCUGGGA,0.371
8,GUUCUCUUUCACGUGCGCGUGAAAGAGAGAAGUGAAUCAGAGAAACACACGUUGUGGUAUAUUACCUGGUA,0.29
9,GUUCUCUUUCACGUGCGAGUGAAAGAGAGAAGUGAACCAGAGAAACACACGUUGUGGUAUAUUACCUGGUA,0.641
10,GUUCUCUUUCACGUGCGGGUGAAAGAGAGAAGUGAACCAGAGAAACACACGUUGUGGUAUAUUACCUGGUA,0.531
11,GUUCUCUUUCACGUGCGCGUGAAAGAGAGAAGUGAACCAGAGAAACACACGUUGUGGUAUAUUACCUGUUA,0.106
12,GUUCUCUUUCACGUGCGCGUGAAAGAGAGAAGUGAACCAGUGAAACACACGUUGUGGUAUAUUACCUGGUA,0.917
13,GUUCUCGUUCACGUGCGCGUGAAAGAGAGAAGUGAACCAGAGAAACACACGUUGUGGUAUAUUACCUGGUA,0.464
14,GUUCUCCUUCACGUGCGCGUGAAAGAGAGAAGUGAACCAGAGAAACACACGUUGUGGUAUAUUACCUGGUA,0.553
15,GUCAUCUUUCUCGUGCGCGUGAAAGAGAGAAGUGAACCAGAGAAACACACGUUGUGGUAUAUUACCUGGUA,0.258
16,GUCAUCUUUCGCGUGCGCGUGAAAGAGAGAAGUGAACCAGAGAAACACACGUUGUGGUAUAUUACCUGGUA,0.158
17,GUUCUCUUUCACGUGCGCGUGAAAGAGAGAAGUGAACCAGAGAAACACACGUUCUGGUAUAUUACCUGGUA,0.211
18,GUUCUCUUUCACGUGCGCGUGAAAGAGAGAAGUGAACCAGAGAAGCACACGUUGUGGUAUAUUACCUGGUA,0.101
19,GUUCUCUUUCACGUGCGCGUGAAAGAGAGAAGUGAACCAGAGAACCACACGUUGUGGUAUAUUACCUGGUA,0.123
20,GUUCUCUUUCACGUGCGCGUGAAAGAGAGAAGAGAACCAGAGAAACACACGUUGUGGUAUAUUACCUGGUA,0.147
21,GUUCUCUUUCACGUGCGCGUGAAAGAGAGAAGCGAACCAGAGAAACACACGUUGUGGUAUAUUACCUGGUA,0.167
22,GUUCUCUUUCACGUGCGCGUGAAAGAGAGAAGGGAACCAGAGAAACACACGUUGUGGUAUAUUACCUGGUA,0.126
23,GUUCUCUUUCACAUGCGCGUGAAAGAGAGAAGUGAACCAGAGAAACACACGUUGUGGUAUAUUACCUGGUA,0.522
24,GUUCUCUUUCACCUGCGCGUGAAAGAGAGAAGUGAACCAGAGAAACACACGUUGUGGUAUAUUACCUGGUA,0.324
25,GUUCUCUUUCACGUGCGCGUGAAAGAGAGAAGUGAACCAGAGAAACACACGUUGUGGUCUAUUACCUGGUA,0.143
26,GUUCUCUUUCACGUGCGCGUGAAAGAGAGAAGUGAACCAGAGAAACACACGUUGAGGUAUAUUACCUGGUA,0.0909

row,Variant,self-cleavage
1,GUUCUCUUUCACGUGCGCGUGAAAGAGAGAAGUGAACCAGAGAAACACACGUUGGGGUAUAUUACCUGGUA,0.208
2,GUUCUCUUUCACGUGCGCGUGAAAGAGAAAAGUGAACCAGAGAAACACACGUUGUGGUAUAUUACCUGGUA,0.173
3,GUUCUCUUUCACGUGCGCGUGAAAGAGAGAAGUGAGCCAGAGAAACACACGUUGUGGUAUAUUACCUGGUA,0.505
4,GUUCUCUUUCACGUGCGCGUGAAAGAGAGAAGUGAACCAGAGAAACACAAGUUGUGGUAUAUUACCUGGUA,0.174
5,GUUCUCUUUCACGUGCGCGGGAAAGAGAGAAGUGAACCAGAGAAACACACGUUGUGGUAUAUUACCUGGUA,0.561
6,GUUCUCUUUCACGUGCGCGUGAAAGAGAGCAGUGAACCAGAGAAACACACGUUGUGGUAUAUUACCUGGUA,0.161
7,GUUCUCUUUCACGUGCGCGUGAAACAGAGAAGUGAACCAGAGAAACACACGUUGUGGUAUAUUACCUGGUA,0.0917
8,GUUCUCUUUCACGUGCGCGUAAAAGAGAGAAGUGAACCAGAGAAACACACGUUGUGGUAUAUUACCUGGUA,0.483
9,GUUCUCUUUCACGUGCCCGUGAAAGAGAGAAGUGAACCAGAGAAACACACGUUGUGGUAUAUUACCUGGUA,0.305
10,GUUCUCUUUCACGUGCACGUGAAAGAGAGAAGUGAACCAGAGAAACACACGUUGUGGUAUAUUACCUGGUA,0.682
11,GUUCUCUUUCACGUGCGCGUGAAAGAGAGAAGUGAACUAGAGAAACACACGUUGUGGUAUAUUACCUGGUA,0.354
12,GUUCUCUUUCACGUGCGCGUGAAAGAGAGAAGUGAACCAGAGAAACACACGUUGUGGUAUAUUACCUGGUU,0.429
13,GUUCUCUUUCACGUGCGCGUGAAAGAGAGAAGUGAACCAGAGAAACACACGUUGUGGUAUAUUACCUGGUC,0.962
14,GUUCUCUUUCACGUUCGCGUGAAAGAGAGAAGUGAACCAGAGAAACACACGUUGUGGUAUAUUACCUGGUA,0.474
15,GUUCUCUUUCACGUACGCGUGAAAGAGAGAAGUGAACCAGAGAAACACACGUUGUGGUAUAUUACCUGGUA,0.416
16,GUCAUCUUUCACGUGCGCGUGAAAGAGAGGAGUGAACCAGAGAAACACACGUUGUGGUAUAUUACCUGGUA,0.105
17,GUUCUCUUUCACGUGCGCGUGAAAGAGAGAAGUGAACCAGAGAAACACACGUUGUGGUAUAUUACCGGGUA,0.164
18,GUUCUCUUUCACGUGCGCGUGAAAGAGAGAAGUGAACCAGAGAAACGCACGUUGUGGUAUAUUACCUGGUA,0.275
19,GUUCUCUUUCACGUGCGCGUGAAAGAGAGAAGUGAACCAGAGAAACCCACGUUGUGGUAUAUUACCUGGUA,0.192
20,GUUCUCUUUCACGUGCGCGUGAAAGAGAGAAGUGAACCAGAGAAACUCACGUUGUGGUAUAUUACCUGGUA,0.208
21,GUCAUCUUUCACGUGCGCGUGAAUGAGAGAAGUGAACCAGAGAAACACACGUUGUGGUAUAUUACCUGGUA,0.196
22,GUUCUCUUUCACGUGCGCGUGAAAGAGAGAAGUGAACCAGAGAAACAAACGUUGUGGUAUAUUACCUGGUA,0.167
23,GUUCUCUUUCACGUGCGCGUGAAAGAGAGAAGUGAACCAGAGAAACACACGUUGUGGUAUAUUACUUGGUA,0.239
24,GUUCUCUUUCACGUGCGCGUGAAAGAGAGAAGUGAACCAGAGAAACACACGUAGUGGUAUAUUACCUGGUA,0.495
